Test results taken from the nanobody polyreactivity screen of Harvey et al. (2022).

Assay: yeast display, Sf9 membrane polyspecificity reagent, FACS + sequencing; frameworks hold sequencing errors
Outline: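 Galactose induction of a Saccharomyces cerevisiae BJ5465 synthetic nanobody display library ran 36–48 hours. The cells were then stained for 1 hour at 4 °C with 10% biotinylated, detergent-solubilized Sf9 membrane reagent, pulled down on streptavidin microbeads and FACS-sorted into low and high (top ~1%) gates on expression and reagent-binding fluorescence. Labels for polyreactivity follow the gate of origin.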

Sequence | polyreactivity (PSR sort gate)
HVQHVESAVGLVQAGGRLRLSCAASGIIFRGNVMGWYIPAPGKERELVAAISGSGGRTYYADSVKGRFTISRDNAKNTVYLLMNSLKPEDTAVYYCAVSGTRTIWGISYRMYYWGQGTQVTVSS | high polyreactivity
HVQLEESGGGEVQAGGSLRLTCAASGLIYTTYAMGWYRPAPGTERELVAAISRRGSRTYYADSVKGRFTISRDNAKNTVYLQMNSLNPEDTAVYYCNALTGSFKTDSFDYWGQGTQVTVSS | high polyreactivity
HVQLGESGGGLVQAGGSLRLSCAASGRNFERNVMGWYRPATGKERELVAGIRSDGDRTYYADSVKGRFTISRDNSKNTVYLQLKSLKPEDTAVYYCAVVWYDKGRQTRYNYWGQGTQVTVSS | high polyreactivity
HVQLKESGGGLVQAGGSLRLSCAASGSIFKVVDMGLYRKAPAKEREFVANIGEGCNTYYADSVKGRFTISRDNAKNTVYLQMNSLKPEDTAVYFYAFVLGTSYRYTYWGQGTLVTVSS | low polyreactivity
HVQLLESGGGLLQAGGSLRLSCMASGSILRDRMSWYLQAPGKEHELVATIYDGGITYYADSMKGRFTISRDNAKNTVYLQMNSLRPEDTAVYYCGASFEGYRYHVYCGQGTQVTVSS | low polyreactivity
HVQLQERAAWCRRAGSLRQSCAASGNISHYYFMGWYRQAPGKERELVAAIAPGSNTYYADSVKGRFTISRDNAKNTVYLQMNSLKPEDTAVCFCAANSTQYTWFDYWGQGTQVPVSS | low polyreactivity
HVQLQESAGGLVQAGGSLRLSCAASGNISYSRNMGWYRQAPGKERELVAAIDRGAITYYADSVKGRFTISRDNATNTVYLQIYSLKPEDTAVYYCAAEYHDRWDHRYWGQGTHVTVSS | high polyreactivity
HVQLQESGGGLEQAGGSLRLSCAASGYISDIGTMGWYRQAPGKEREFVANIVVGSTTNYADSVKGRFTISRDNAKNTVYLQPESGRYRGVLLRGWLLAVGKFTYWGQGTQETVSS | low polyreactivity
HVQLQESGGGLVQAGGSLRLSCAASGYISHADEMGWYRQAPGKEHELVASISNGGSTNYADSVKGRFTISRDNAKNTVYLQMNSLKSEVTAVYYCAAWTGQVDFHYYWGQGTQVSVSS | low polyreactivity
HVQLQESGGGLVQAGGSLRLSCGASGNISYSRSMGCYRQAPGKERELVAAIDRGAITYYADSVKGRFTISRDNAKNTVYLQIYSLKPEDTAVYYCAAVYHDRWDHRYWGQGTQVTVCS | high polyreactivity
HVQLQESGGGLVQARGSLRLSCAATGSIFYRLKMGWHRQAPGKERELVATIDPGSNTYYADSVKGSFTISRDNAKKTVYPQMYSLKPEDTAVYYCAVSAHWTIHYYYWGEGTQVTVSS | high polyreactivity
HVQLVDSGGGLVQAGGSLRLSCAASGSIFRYYTMGWYRQAPGKERELVAAISWSGGRTYYAHSVKGRFTISRDKAKNTVYLQMNSLKPEDTAVYYCAAVRPYYYPLPTVPNLPYDYWGQGTQVTVSS | high polyreactivity
HVQLVEAGGGLVQAGGSLRLSCAASGSTLQYYAMGWYRQAPGKERELVAAITSTGSRTYYADSVKGRFTISRDNAKNTVYLLMNSLKPADTAVYYCAADIYDGEYDYWGQGTQVTVSS | high polyreactivity
HVQLVESAGGLFQEGGSLRVSCAASGGTLNTYAMGRYRQAPGKDREFVSAITTSGASTYYADSVKGRFTISRDNAKNTVYLQMNSLKPEDSAVYYCYCDYWGQGTQVTVSS | low polyreactivity
HVQLVESAGGLVQAGGSLRLSCAASGSILPRYAKGWYRQAPGKERELVAAISWSGGNTYYADSVKGRFTISRDNAKNTVYFQMNSLTPEDTAVSYSAARQYDWVIQGSRVRPVHYDYWGQGTQVNVSS | high polyreactivity
HVQLVESGAGLVQAGGSLRLSCAASGSTLRYYAMGWYRQAPGKERELVAAISTVGSTYYADSVKCRFTISRDNAKNTVNLQMNILKPEDTAVYYCAAEPWANTPGDAGSPFDYWGQGTQVTVSS | low polyreactivity
HVQLVESGGCLFQAGGSLRLSCAASGRIFPGYAMGWYRQAPGKERELFAAINTSGGRTYYADSVKGRFTISGENAKNTVYLQMNSLKPEDTAVSYCAAVYRSRYDYWGQGTQVTVSS | high polyreactivity
HVQLVESGGGLFQAGGRLRVSCAASGNTIWGNAMGGSRQAPGKEREVVAAITGGGDTNYADSVKGRFTISRDNAKNTVYLQMNSLKPEDTAVYYCAADSSEWLLKDDYWGQGTQVTVSS | low polyreactivity
HVQLVESGGGLVQAGGRLRLSCAASGRNFVENAIGWYRQAPGKEWEFVAAISGGGSTDYADSVKGRFTISRDNAKNTVYLQMNSLKPEDTAVYYCNARQVFTTAGREMDYWGQGTQVTVSS | low polyreactivity
HVQLVESGGGLVQAGGSHRLICASSGFTIYYAIAWYRQAPGKESELVASISANGGSTYYADSVKGRFTISRDNAKNTVYLQMNSLKPEDTAVYYCAARGLSGQRRYYWGQGTQVTVSS | high polyreactivity
HVQLVESGGGLVQAGGSLRIICAASVRIFYLYAMGWYRRAPGKERELVATINSGGSTKYADSVKGRFTISRDNAKNSVYLQRNSLKPEDTAVYYCNAKRWKDYYPYQSWKYGYWGQGTQVTVSS | high polyreactivity
HVQLVESGGGLVQAGGSLRISCAASGRTFYSYVMGWYRQAPGKQRQLVAAISSGGGRTYYADSVKGRFTISRDNAKHTVYLQMNSLKPEDTAVYYCNAVTRGTRWGLPYEYWGQGTQVTVSS | high polyreactivity

Sequence | polyreactivity (PSR sort gate)
HVQLVESGGGLVQAGGSLRLICAASVRIFADNAMGWYRQAPGKERELSAAISESGGSTYYADSVKGRFTISRDNAKNTVYLEMNSLKPEDTAVYYCAATAEVHRAEPYDYWGQGTQVTVSS | low polyreactivity
HVQLVESGGGLVQAGGSLRLSCAASGFIFRKYAMGWYRQAPGKERELVAAISGRADSTYYADSVKGRFTISRDNAKNTVYLEMISLKPEDTAVYYCAADWLSKIGKGYDYWGQGTQVTVSS | high polyreactivity
HVQLVESGGGLVQAGGSLRLSCAASGFSFDPYAMGWYRQAPGKERELVAAISDGGSTNYPDSVKGRFTISRDNAKNTVYLQRNSLKPEDTAVYYCAVEYWYVRGTFDDWGQGTQVTVSS | low polyreactivity
HVQLVESGGGLVQAGGSLRLSCAASGFTFRLYAMGWYRQAPGKERELVAAINWGGGSTRYADSVKGRFTISRDNAKNTVYLQMNSLKPEDTAVYYCAARRFAYYFQYLGGGYWGQGTQVTVSS | high polyreactivity
HVQLVESGGGLVQAGGSLRLSCAASGLIFDWYAMGWYRQAPGKERELVADISYSGGSTNYADSVKGRFTISRDNAKNTVYLQMNSLKPEDTAVYYCAVDYYYPTLTIGYYYWGQGTQVTVSS | low polyreactivity
HVQLVESGGGLVQAGGSLRLSCAASGRIFAPYDMGWYRPAPGNERELVAAISRSGGSTYYADSVKGRFTSSRDNAKNTVYLQMNSLKPEDTAVYYCAASYPGRYWLYRYEYWGQGTQVTVSS | high polyreactivity
HVQLVESGGGLVQAGGSLRLSCAASGRIFFRYAMGWYRQAPGKERELVAAISYSGGSTYYADSVKGRFTISRDNAKNTVYLQMNSLKPEDTAVYYCAAPLLRDLRSPYSYNYWGQGTQVTVSS | low polyreactivity
HVQLVESGGGLVQAGGSLRLSCAASGRIFGVYVMGWYRPAPGKERELVAGISPSGGSTYYADSVKGRFTISRDNAKNTVYLQMNSLKPEDTAVYYCAAVLRIRRPRYGYWGQGTQVTVSS | high polyreactivity
HVQLVESGGGLVQAGGSLRLSCAASGRIFNDYSMGWYRQAPGKERELVAAIRRRGDRTYYADSVKGRFTISRDNAKNTVYLQMNSLKPEDTAVYYCAKSQSAKGGYDYWGQGTQVTVSS | high polyreactivity
HVQLVESGGGLVQAGGSLRLSCAASGRIFWRYAMGWYRQAPGKEREFVADITYSGGSTYYADSVKGRFTISRDNAKNTVYLQMNSLKPEDTAVYYCAAGWVRPWATYKLDYWGQGTQVTVSS | high polyreactivity
HVQLVESGGGLVQAGGSLRLSCAASGRTLGSYAIGWYRQAPGKARELVAAISGGSTNYADSVKGRFTISRDNAKNTVYLQMNRLKPEDTAVYYCAADPYGYLYDSWGQGTQVTVSS | low polyreactivity
HVQLVESGGGLVQAGGSLRLSCAASGSIFEYYAMGWYRQAPGKERELVASISRGTSTNYADSVKGRFTISRDNAKNTVYLQMNSLKPEDTAVYYCNADGWTVVLDTYGSWGQGTQVTVSS | low polyreactivity
HVQLVESGGGLVQAGGSLRLSCAASGSIFLHNTMGWYRQAPGKERELVAVISKRGGSTYYADSVKGRFTISRDNAKNTVYLQMNCLKPEDTAVYYCNKTRSAGHPGVDGSPYYYWGQGTQVTVSS | high polyreactivity
HVQLVESGGGLVQAGGSLRLSCAASGSISHLYTMRWYRQAPGKERELVAAIRYSGGRTDYADSVKGRFTISRDNAKNTVYLQMNSLKPEDTAVYYCAATQLRRWYYHYGLDYWGQGTQVTVSS | high polyreactivity
HVQLVESGGGLVQAGGSLRLSCAASGSTFGENAMGWYRQAPGKERELVAAITWGTNTYYADSVKGRFTISRDNAKNTVYLQMNSLKPEDTAVYYCAAQFQTRGWRYVYWGQGTQVSVSS | low polyreactivity
HVQLVESGGGLVQAGGSLRLSCAASGSTFTLNVMGWYRQAPGKERELVAGISKRGGNTYYADSVKGRFTISRDNAKNTVYLQMNSLKPEDTAVYYCATYSRIFKWEYYYWGQGTQVTVSS | high polyreactivity
HVQLVESGGGLVQAGGSLRLSCAASGSTFTRYVMGWYRQAPGKERELVAAISSGVSTYYADSVKGRFTISRDNAKNSVYLQMNSLKPEDTAVYYCDANRYRAREYKYWGQGTQVTVSS | high polyreactivity
HVQLVESGGGLVQAGGSLRLSFAASGRIFTHNAMGLYRKAPGKERELVAAITSGGRTTYADSVKGRFTISRDNAKNTVYLQMNSLKPEDTAVYYCNADTGLGSLDFDKRDYWGQGTQVTVSS | low polyreactivity
HVQLVESGGGLVQARGSLRLSCAASGSTFYAYDRGWYRQAPGKERELVAAISSTGGRTDYADSVKGRFTISRDNSKNTVYLQMNSLKPEDTAVYYCAARQLSSHYDYWGQGTQGTVSS | low polyreactivity
HVQLVESGRGLFQAGGSLRLSCAASGFIFQYYAMGWYRQAPGKERELVAAISFGGSTYYADSVKGRFTISRDNAKNTVYLQMNSLKPEDTAVYYCAGDYYSWYGYDYWGQCTQVTVSS | low polyreactivity
HVQLVESVGGLVQAGGSLRLSCAASGSTFFYNAMAWYRQAPGKERELVAAITVTGNSTYYADSVKGRFTISRDNAKNTVYLQMNSLKPEDTAVYYCNTSLKRRRLRFNYWGQGTQVTVSS | low polyreactivity
